Test results published in patent US20260098059A1 (ENDOMET BIOSCIENCES, published 2026).
Several values for one entry are separate records, joined by “and”; a condition that tells them apart may be missing. Identical values can stand only once. Where no end group is shown, it is not given here.

T1: β-catenin (UniProt P35222 134-665, limits assumed, biotinylated in the SPR and plate assays)
T1 sequence (looked up): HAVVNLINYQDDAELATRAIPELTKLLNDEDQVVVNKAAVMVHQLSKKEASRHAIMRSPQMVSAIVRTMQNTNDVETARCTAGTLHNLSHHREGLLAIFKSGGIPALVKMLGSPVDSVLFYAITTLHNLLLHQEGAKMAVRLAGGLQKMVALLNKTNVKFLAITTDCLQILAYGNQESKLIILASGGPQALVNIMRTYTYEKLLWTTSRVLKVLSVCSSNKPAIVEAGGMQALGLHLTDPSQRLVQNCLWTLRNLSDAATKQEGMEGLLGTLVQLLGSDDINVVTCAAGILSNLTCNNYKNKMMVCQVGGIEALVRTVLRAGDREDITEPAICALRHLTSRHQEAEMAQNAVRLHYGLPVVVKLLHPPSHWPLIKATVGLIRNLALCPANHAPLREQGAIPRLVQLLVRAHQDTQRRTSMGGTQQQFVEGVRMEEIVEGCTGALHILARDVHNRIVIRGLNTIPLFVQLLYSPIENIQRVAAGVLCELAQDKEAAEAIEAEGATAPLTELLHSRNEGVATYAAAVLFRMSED

B1: SEQ ID NO: 101 (peptide)
peptide: WFLISSW
HELM: PEPTIDE1{W.F.L.I.S.[O=C([C@H](COCc1ccccc1)N[*:1])[*:2]].W}$$$$V2.0
SMILES: CC[C@H](C)[C@H](NC(=O)[C@H](CC(C)C)NC(=O)[C@H](Cc1ccccc1)NC(=O)[C@@H](N)Cc1c[nH]c2ccccc12)C(=O)N[C@@H](CO)C(=O)N[C@@H](COCc1ccccc1)C(=O)N[C@@H](Cc1c[nH]c2ccccc12)C(=O)O
B2: SEQ ID NO: 106 (peptide)
peptide: MSRMWFLISSW
HELM: PEPTIDE1{M.S.R.M.W.F.L.I.S.[O=C([C@H](COCc1ccccc1)N[*:1])[*:2]].W}$$$$V2.0
SMILES: CC[C@H](C)[C@H](NC(=O)[C@H](CC(C)C)NC(=O)[C@H](Cc1ccccc1)NC(=O)[C@H](Cc1c[nH]c2ccccc12)NC(=O)[C@H](CCSC)NC(=O)[C@H](CCCNC(=N)N)NC(=O)[C@H](CO)NC(=O)[C@@H](N)CCSC)C(=O)N[C@@H](CO)C(=O)N[C@@H](COCc1ccccc1)C(=O)N[C@@H](Cc1c[nH]c2ccccc12)C(=O)O
B3: SEQ ID NO: 32 (peptide)
peptide: KSRMWYLISFW
HELM: PEPTIDE1{K.S.R.M.W.Y.L.I.S.F.W}$PEPTIDE1,PEPTIDE1,1:R3-11:R2$$$V2.0
SMILES: CC[C@H](C)[C@@H]1NC(=O)[C@H](CC(C)C)NC(=O)[C@H](Cc2ccc(O)cc2)NC(=O)[C@H](Cc2c[nH]c3ccccc23)NC(=O)[C@H](CCSC)NC(=O)[C@H](CCCNC(=N)N)NC(=O)[C@H](CO)NC(=O)[C@@H](N)CCCCNC(=O)[C@H](Cc2c[nH]c3ccccc23)NC(=O)[C@H](Cc2ccccc2)NC(=O)[C@H](CO)NC1=O
B4: SEQ ID NO: 105 (peptide)
peptide: MSRMWFLISSW
HELM: PEPTIDE1{M.S.R.M.W.F.L.I.S.[CCOC[C@H](N[*:1])C(=O)[*:2]].W}$$$$V2.0
SMILES: CCOC[C@H](NC(=O)[C@H](CO)NC(=O)[C@@H](NC(=O)[C@H](CC(C)C)NC(=O)[C@H](Cc1ccccc1)NC(=O)[C@H](Cc1c[nH]c2ccccc12)NC(=O)[C@H](CCSC)NC(=O)[C@H](CCCNC(=N)N)NC(=O)[C@H](CO)NC(=O)[C@@H](N)CCSC)[C@@H](C)CC)C(=O)N[C@@H](Cc1c[nH]c2ccccc12)C(=O)O

The binders below were run against T1, β-catenin (assay: cell-based or functional assay).

Binder	Wnt Reporter EC50
WFLISFW-NH2 [SEQ ID NO: 98]	> 30 µM
H-WFLISSW-OH [SEQ ID NO: 97]	> 22.5 µM and ≤ 30 µM
H-WFLITTW-OH [SEQ ID NO: 100]	> 7.5 µM and ≤ 15 µM
B1	> 7.5 µM and ≤ 15 µM
H-WFLISTW-OH [SEQ ID NO: 103]	> 15 µM and ≤ 22.5 µM
MWFLISFW-NH2 [SEQ ID NO: 107]	> 7.5 µM and ≤ 15 µM
MSRMWFLISFW-NH2 [SEQ ID NO: 72]	> 30 µM
HSRMWFLISFW-NH2 [SEQ ID NO: 89]	> 30 µM
WSRMWFLISFW-NH2 [SEQ ID NO: 79]	> 30 µM
DSRMWFLISFW-NH2 [SEQ ID NO: 85]	> 30 µM
MSRTWFLISFW-NH2 [SEQ ID NO: 76]	> 30 µM
KSRMWFLISFW-NH2 [SEQ ID NO: 83]	> 30 µM
MSRHWFLISFW-NH2 [SEQ ID NO: 88]	> 30 µM
WSRKWFLISFW-NH2 [SEQ ID NO: 90]	> 30 µM
B2	> 15 µM and ≤ 22.5 µM
MTRMWFLISFW-NH2 [SEQ ID NO: 73]	> 30 µM
RSRMWFLISFW-NH2 [SEQ ID NO: 84]	> 30 µM

Binder	Wnt Reporter EC50
MSRMWWLISFW-NH2 [SEQ ID NO: 80]	> 30 µM
MSRWWFLISFW-NH2 [SEQ ID NO: 78]	> 30 µM
FSRMWFLISFW-NH2 [SEQ ID NO: 81]	> 30 µM
MQRMWFLISFW-NH2 [SEQ ID NO: 74]	> 30 µM
WSRHWFLISFW-NH2 [SEQ ID NO: 91]	> 30 µM
MSRRWFLISFW-NH2 [SEQ ID NO: 75]	> 30 µM
YSRMWFLISFW-NH2 [SEQ ID NO: 82]	> 30 µM
KSRWWFLISFW-NH2 [SEQ ID NO: 95]	> 30 µM
H-MSRMWFLISSW-OH [SEQ ID NO: 99]	> 22.5 µM and ≤ 30 µM
ESRMWFLISFW-NH2 [SEQ ID NO: 86]	> 30 µM
WSRWWFLISFW-NH2 [SEQ ID NO: 92]	> 15 µM and ≤ 22.5 µM
MSRKWFLISFW-NH2 [SEQ ID NO: 87]	> 30 µM
B3	> 30 µM
MSRFWFLISFW-NH2 [SEQ ID NO: 77]	> 30 µM
KSRKWFLISFW-NH2 [SEQ ID NO: 93]	> 30 µM
KSRHWFLISFW-NH2 [SEQ ID NO: 94]	> 30 µM
B4	> 7.5 µM and ≤ 15 µM
